Results taken from the supplement of paper PMC10567573.

B1: C10orf62 (parent)
chain: GHSHHSHHGHPSHQSHSLPNRRH
B2: FBXO3 (parent)
chain: AGGFQQRQGLKYCLPLTFCIHTGL

Variants of: B1
Experiment: protein stability index of a GFP-peptide fusion (GPS, HEK-293T) (PSI 1-6); higher = more stable
Conditions: c terminus: native
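Also: lentivirally expressed fusions sorted by FACS into six bins by GFP to DsRed ratio, PSI derived from sequencing read proportions per bin multiplied by bin number.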

Variant	protein stability index
GHSHHSHHGHPSHQSHSLPNRRW [H23W]	2.25
GHSHHSHHGHPSHQSHSLPNRRT [H23T]	2.88
GHSHHSHHGHPSHQSHSLPNRRK [H23K]	4.73
GHSHHSHHGHPSHQSHSLPNRRP [H23P]	2.31
GHSHHSHHGHPSHQSHSLPNRRA [H23A]	2.23
GHSHHSHHGHPSHQSHSLPNRRN [H23N]	3.15
GHSHHSHHGHPSHQSHSLPNRRI [H23I]	2.78
GHSHHSHHGHPSHQSHSLPNRRL [H23L]	3.52
GHSHHSHHGHPSHQSHSLPNRRF [H23F]	2.77
GHSHHSHHGHPSHQSHSLPNRRC [H23C]	2.68
GHSHHSHHGHPSHQSHSLPNRRQ [H23Q]	2.48
GHSHHSHHGHPSHQSHSLPNRRR [H23R]	4.71
GHSHHSHHGHPSHQSHSLPNRRV [H23V]	2.35
GHSHHSHHGHPSHQSHSLPNRRY [H23Y]	3.4
GHSHHSHHGHPSHQSHSLPNRRM [H23M]	2.18
GHSHHSHHGHPSHQSHSLPNRRS [H23S]	2.88
GHSHHSHHGHPSHQSHSLPNRQH [R22Q]	2.69
GHSHHSHHGHPSHQSHSLPNRMH [R22M]	3
GHSHHSHHGHPSHQSHSLPNRPH [R22P]	3.56
GHSHHSHHGHPSHQSHSLPNRKH [R22K]	4
GHSHHSHHGHPSHQSHSLPNRFH [R22F]	2.84
GHSHHSHHGHPSHQSHSLPNRGH [R22G]	2.15
GHSHHSHHGHPSHQSHSLPNRDH [R22D]	3.39
GHSHHSHHGHPSHQSHSLPNRAH [R22A]	3.28
GHSHHSHHGHPSHQSHSLPNRWH [R22W]	2.86
GHSHHSHHGHPSHQSHSLPNRTH [R22T]	3.14
GHSHHSHHGHPSHQSHSLPNRSH [R22S]	3.94

Variant	protein stability index
GHSHHSHHGHPSHQSHSLPNRYH [R22Y]	2.11
GHSHHSHHGHPSHQSHSLPNRLH [R22L]	1.29
GHSHHSHHGHPSHQSHSLPNREH [R22E]	2
GHSHHSHHGHPSHQSHSLPNRHH [R22H]	4.93
GHSHHSHHGHPSHQSHTLPNRRH [S17T]	4.17
GHSHHSHHGHPSHQSHWLPNRRH [S17W]	2.37
GHSHHSHHGHPSHQSHYLPNRRH [S17Y]	4.98
GHSHHSHHGHPSHQSHQLPNRRH [S17Q]	2.82
GHSHHSHHGHPSHQSHPLPNRRH [S17P]	4.04
GHSHHSHHGHPSHQSHVLPNRRH [S17V]	1.69
GHSHHSHHGHPSHQSHMLPNRRH [S17M]	3.01
GHSHHSHHGHPSHQSHRLPNRRH [S17R]	4.84
GHSHHSHHGHPSHQSHSLPNGRH [R21G]	1.71
GHSHHSHHGHPSHQSHSLPNFRH [R21F]	2.13
GHSHHSHHGHPSHQSHSLPNHRH [R21H]	2.67
GHSHHSHHGHPSHQSHSLPNKRH [R21K]	1.94
GHSHHSHHGHPSHQSHSLPNQRH [R21Q]	2.38
GHSHHSHHGHPSHQSHSLPNTRH [R21T]	1.81
GHSHHSHHGHPSHQSHSLPNCRH [R21C]	4.2
GHSHHSHHGHPSHQSHSLPNDRH [R21D]	2.2
GHSHHSHHGHPSHQSHSLPNMRH [R21M]	2
GHSHHSHHGHPSHQSHSLPNNRH [R21N]	2.6
GHSHHSHHGHPSHQSHSLPNPRH [R21P]	2.05
GHSHHSHHGHPSHQSHSLPNARH [R21A]	1.97
GHSHHSHHGHPSHQSHSLPNWRH [R21W]	2.43
GHSHHSHHGHPSHQSHSLPNVRH [R21V]	1.39
GHSHHSHHGHPSHQSHSLPNIRH [R21I]	2.36

Variant	protein stability index
GHSHHSHHGHPSHQSHSLPNLRH [R21L]	1.81
GHSHHSHHGHPSHQSHSLPNYRH [R21Y]	2.17
GHSHHSHHGHPSHQSHSLPNERH [R21E]	2.81
GHSHHSHHGHPSHQSHSLPNSRH [R21S]	1.67
GHSHHSHHGHPSHQSHSLPPRRH [N20P]	2.07
GHSHHSHHGHPSHQSHSLPVRRH [N20V]	3.13
GHSHHSHHGHPSHQSHSLPQRRH [N20Q]	1.94
GHSHHSHHGHPSHQSHSLPYRRH [N20Y]	2.58
GHSHHSHHGHPSHQSHSLPTRRH [N20T]	3.28
GHSHHSHHGHPSHQSHSLPLRRH [N20L]	3.05
GHSHHSHHGHPSHQSHSLPARRH [N20A]	2.97
GHSHHSHHGHPSHQSHSLPERRH [N20E]	4.47
GHSHHSHHGHPSHQSHSLPGRRH [N20G]	4.22
GHSHHSHHGHPSHQSHSLPIRRH [N20I]	2.29
GHSHHSHHGHPSHQSHSLPDRRH [N20D]	3.58
GHSHHSHHGHPSHQSHSLPSRRH [N20S]	1.35
GHSHHSHHGHPSHQSHSLPFRRH [N20F]	2.31
GHSHHSHHGHPSHQSHSLPMRRH [N20M]	3.84
GHSHHSHHGHPSHQSHSLPKRRH [N20K]	3.23
GHSHHSHHGHPSHQSHSLPHRRH [N20H]	2.44
GHSHHSHHGHPSHQSHSLLNRRH [P19L]	2.28
GHSHHSHHGHPSHQSHSLENRRH [P19E]	2
GHSHHSHHGHPSHQSHSLRNRRH [P19R]	2.09
GHSHHSHHGHPSHQSHSLCNRRH [P19C]	2.95
GHSHHSHHGHPSHQSHSLGNRRH [P19G]	2.35
GHSHHSHHGHPSHQSHSLQNRRH [P19Q]	2.38
GHSHHSHHGHPSHQSHSLDNRRH [P19D]	3.02

Variant	protein stability index
GHSHHSHHGHPSHQSHSLTNRRH [P19T]	4.47
GHSHHSHHGHPSHQSHSLYNRRH [P19Y]	3.05
GHSHHSHHGHPSHQSHSLHNRRH [P19H]	2.4
GHSHHSHHGHPSHQSHSLNNRRH [P19N]	2.4
GHSHHSHHGHPSHQSHSLKNRRH [P19K]	2.15
GHSHHSHHGHPSHQSHSLFNRRH [P19F]	2.38
GHSHHSHHGHPSHQSHSIPNRRH [L18I]	3.49
GHSHHSHHGHPSHQSHSWPNRRH [L18W]	3.46
GHSHHSHHGHPSHQSHSTPNRRH [L18T]	2.27
GHSHHSHHGHPSHQSHSEPNRRH [L18E]	3.19
GHSHHSHHGHPSHQSHSRPNRRH [L18R]	4.23
GHSHHSHHGHPSHQSHSDPNRRH [L18D]	1.85
GHSHHSHHGHPSHQSHSFPNRRH [L18F]	3.24
GHSHHSHHGHPSHQSHSQPNRRH [L18Q]	3.76
GHSHHSHHGHPSHQSHSCPNRRH [L18C]	2.94
GHSHHSHHGHPSHQSHSHPNRRH [L18H]	4.06
GHSHHSHHGHPSHQSHSPPNRRH [L18P]	2.11
GHSHHSHHGHPSHQSHSMPNRRH [L18M]	2.16
GHSHHSHHGHPSHQSHSVPNRRH [L18V]	2.52
GHSHHSHHGHPSHQSHSAPNRRH [L18A]	3.18
GHSHHSHHGHPSHQSHSKPNRRH [L18K]	1.51
GHSHHSHHGHPSHQSHSNPNRRH [L18N]	2.88
GHSHHSHHGHPSHQSHSGPNRRH [L18G]	2.38
GHSHHSHHGHPSHQSHSYPNRRH [L18Y]	2.08

Variants of: B2
Experiment: as above
Conditions: c terminus: a fixed tail appended

Variant	protein stability index
AGGIQQRQGLKYCLPLTFCIHTGL [F4I]	3.07
AGGAQQRQGLKYCLPLTFCIHTGL [F4A]	3.49
AGGSQQRQGLKYCLPLTFCIHTGL [F4S]	2.38
AGGPQQRQGLKYCLPLTFCIHTGL [F4P]	2.09
AGGCQQRQGLKYCLPLTFCIHTGL [F4C]	2.66
AGGHQQRQGLKYCLPLTFCIHTGL [F4H]	2.54
AGGEQQRQGLKYCLPLTFCIHTGL [F4E]	3.03
AGGRQQRQGLKYCLPLTFCIHTGL [F4R]	2.36
AGGQQQRQGLKYCLPLTFCIHTGL [F4Q]	2.37
AGGMQQRQGLKYCLPLTFCIHTGL [F4M]	2.69
AGGTQQRQGLKYCLPLTFCIHTGL [F4T]	2.82
AGGYQQRQGLKYCLPLTFCIHTGL [F4Y]	2.42
AGGDQQRQGLKYCLPLTFCIHTGL [F4D]	1.87
AGFFQQRQGLKYCLPLTFCIHTGL [G3F]	3.02
AGDFQQRQGLKYCLPLTFCIHTGL [G3D]	3.1
AGCFQQRQGLKYCLPLTFCIHTGL [G3C]	2.66
AGQFQQRQGLKYCLPLTFCIHTGL [G3Q]	4.36
AGNFQQRQGLKYCLPLTFCIHTGL [G3N]	3.27
AGEFQQRQGLKYCLPLTFCIHTGL [G3E]	1.99
AGTFQQRQGLKYCLPLTFCIHTGL [G3T]	3.31
AGPFQQRQGLKYCLPLTFCIHTGL [G3P]	1.51
AGAFQQRQGLKYCLPLTFCIHTGL [G3A]	1.48

Variant	protein stability index
AGLFQQRQGLKYCLPLTFCIHTGL [G3L]	3.11
AGSFQQRQGLKYCLPLTFCIHTGL [G3S]	2.44
AGRFQQRQGLKYCLPLTFCIHTGL [G3R]	3.24
AGMFQQRQGLKYCLPLTFCIHTGL [G3M]	2.47
AGVFQQRQGLKYCLPLTFCIHTGL [G3V]	2.54
AGYFQQRQGLKYCLPLTFCIHTGL [G3Y]	3.02
AGKFQQRQGLKYCLPLTFCIHTGL [G3K]	2.51
AHGFQQRQGLKYCLPLTFCIHTGL [G2H]	4.03
ASGFQQRQGLKYCLPLTFCIHTGL [G2S]	3.13
AVGFQQRQGLKYCLPLTFCIHTGL [G2V]	2.97
AEGFQQRQGLKYCLPLTFCIHTGL [G2E]	2.36
ACGFQQRQGLKYCLPLTFCIHTGL [G2C]	2.6
AKGFQQRQGLKYCLPLTFCIHTGL [G2K]	3.68
ANGFQQRQGLKYCLPLTFCIHTGL [G2N]	2.94
ADGFQQRQGLKYCLPLTFCIHTGL [G2D]	1.68
ALGFQQRQGLKYCLPLTFCIHTGL [G2L]	2.79
ATGFQQRQGLKYCLPLTFCIHTGL [G2T]	1.88
AYGFQQRQGLKYCLPLTFCIHTGL [G2Y]	2.4
APGFQQRQGLKYCLPLTFCIHTGL [G2P]	2.79
AFGFQQRQGLKYCLPLTFCIHTGL [G2F]	2.79
ARGFQQRQGLKYCLPLTFCIHTGL [G2R]	2.59
AIGFQQRQGLKYCLPLTFCIHTGL [G2I]	4.2

Variant	protein stability index
TGGFQQRQGLKYCLPLTFCIHTGL [A1T]	3.47
QGGFQQRQGLKYCLPLTFCIHTGL [A1Q]	2.55
WGGFQQRQGLKYCLPLTFCIHTGL [A1W]	5.07
NGGFQQRQGLKYCLPLTFCIHTGL [A1N]	2.47
MGGFQQRQGLKYCLPLTFCIHTGL [A1M]	3.13
SGGFQQRQGLKYCLPLTFCIHTGL [A1S]	2.65
DGGFQQRQGLKYCLPLTFCIHTGL [A1D]	2.89
YGGFQQRQGLKYCLPLTFCIHTGL [A1Y]	3.08
RGGFQQRQGLKYCLPLTFCIHTGL [A1R]	2.39
CGGFQQRQGLKYCLPLTFCIHTGL [A1C]	2.76
EGGFQQRQGLKYCLPLTFCIHTGL [A1E]	2.57
LGGFQQRQGLKYCLPLTFCIHTGL [A1L]	2.46
IGGFQQRQGLKYCLPLTFCIHTGL [A1I]	2
FGGFQQRQGLKYCLPLTFCIHTGL [A1F]	3.41
VGGFQQRQGLKYCLPLTFCIHTGL [A1V]	2.89
KGGFQQRQGLKYCLPLTFCIHTGL [A1K]	1.87
GGGFQQRQGLKYCLPLTFCIHTGL [A1G]	3.9
HGGFQQRQGLKYCLPLTFCIHTGL [A1H]	3.55
PGGFQQRQGLKYCLPLTFCIHTGL [A1P]	2.91
AGGFLQRQGLKYCLPLTFCIHTGL [Q5L]	2.32
AGGFSQRQGLKYCLPLTFCIHTGL [Q5S]	3.59
AGGFGQRQGLKYCLPLTFCIHTGL [Q5G]	3.92

Variant	protein stability index
AGGFVQRQGLKYCLPLTFCIHTGL [Q5V]	2.33
AGGFRQRQGLKYCLPLTFCIHTGL [Q5R]	2.27
AGGFWQRQGLKYCLPLTFCIHTGL [Q5W]	3.08
AGGFYQRQGLKYCLPLTFCIHTGL [Q5Y]	3.66
AGGFDQRQGLKYCLPLTFCIHTGL [Q5D]	2.34
AGGFKQRQGLKYCLPLTFCIHTGL [Q5K]	2.88
AGGFTQRQGLKYCLPLTFCIHTGL [Q5T]	2
AGGFHQRQGLKYCLPLTFCIHTGL [Q5H]	1.87
AGGFIQRQGLKYCLPLTFCIHTGL [Q5I]	2.17
AGGFCQRQGLKYCLPLTFCIHTGL [Q5C]	3.02
AGGFNQRQGLKYCLPLTFCIHTGL [Q5N]	2.77
AGGFMQRQGLKYCLPLTFCIHTGL [Q5M]	2.17
AGGFFQRQGLKYCLPLTFCIHTGL [Q5F]	1.98
AGGFAQRQGLKYCLPLTFCIHTGL [Q5A]	3.05
AGGFPQRQGLKYCLPLTFCIHTGL [Q5P]	1.71
AGGFQGRQGLKYCLPLTFCIHTGL [Q6G]	2.7
AGGFQARQGLKYCLPLTFCIHTGL [Q6A]	2.26
AGGFQERQGLKYCLPLTFCIHTGL [Q6E]	3.6
AGGFQCRQGLKYCLPLTFCIHTGL [Q6C]	2.8
AGGFQDRQGLKYCLPLTFCIHTGL [Q6D]	1.89
